Test results taken from paper PMC4944944 (2016).

Target: F-actin prepared from muscle actin (Oryctolagus cuniculus (Rabbit), UniProt P68135)
Assay: F-actin co-sedimentation

B1: Flag::mCherry::CHDP-1 (protein)
chain: MSEEIKKIEEVAEQDKAPKVPTTEPPVDVPAPVTEEAPKVEEAVAEIAAPAAAEGETATAAAAAPEEKKKSGGVARRFTFNKRWGKHRDAEASTPKEPEAPKDPKEDVLGWIAQQIPQAVHKANYQVIDWVQKTAIPEEGERKTIPGKDQATTRNQFIGFFKDGDVLAKLANALEPGAVEVAAAEENADAAAQKEVQKKNIDAFGAWAQKTLGTEAAPVTNEDLLEKGKAGYTAVFQTLWQLGVQAKEKFDKEGFNVDTIVQLANSVVKSGLLTTILGFFRRNRQAAAAVEEPKDETAAAEGAGEAKEEGATGEVADTADEPVAVKQETSAPAAVAAN
B1: no binding.
